tested on: Escherichia coli TOP10; test: shrunken log2 fold change of peptide-encoding DNA abundance (4.5 h post-induction vs induction); higher = less antimicrobial activity (less host growth inhibition); details: time post-induction: 4.5 h; library: site-saturation at positions 5, 18, 19, 20
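Note: peptides expressed intracellularly from a pBAD plasmid library in pooled LB shake-flask culture, induced with 0.3% L-arabinose, DNA abundance read by NGS, three biological replicates, DESeq2 with apeglm shrinkage.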

Sequence	shrunken log2 fold change
RRIRYRPPRLPRPRPRPEKVPRP	-0.241
RRIRWRPPRLPRPRPRPIEIPRP	-0.101
RRIRFRPPRLPRPRPRPKLYPRP	-0.481
RRIRPRPPRLPRPRPRPECHPRP	-0.0419
RRIRTRPPRLPRPRPRPMPYPRP	-0.159
RRIRYRPPRLPRPRPRPEYMPRP	-0.271
RRIRLRPPRLPRPRPRPMVMPRP	-0.0937
RRIRSRPPRLPRPRPRPYSDPRP	-0.0368
RRIRKRPPRLPRPRPRPPCLPRP	0.123
RRIRPRPPRLPRPRPRPTSFPRP	0.0509
RRIRARPPRLPRPRPRPWWVPRP	0.066
RRIRMRPPRLPRPRPRPQDAPRP	0.0668
RRIRTRPPRLPRPRPRPLNTPRP	-0.602
RRIRKRPPRLPRPRPRPMIEPRP	0.0881
RRIRRRPPRLPRPRPRPYIRPRP	-0.715
RRIRNRPPRLPRPRPRPVACPRP	-0.0504
RRIRDRPPRLPRPRPRPVIWPRP	0.0861
RRIRRRPPRLPRPRPRPGWVPRP	0.359
RRIRNRPPRLPRPRPRPCNPPRP	-0.378
RRIRKRPPRLPRPRPRPIIIPRP	-0.104
RRIRSRPPRLPRPRPRPWCFPRP	-0.715
RRIRVRPPRLPRPRPRPPIMPRP	-0.486
RRIRERPPRLPRPRPRPEKVPRP	-0.0174
RRIRWRPPRLPRPRPRPLVVPRP	0.173
RRIRLRPPRLPRPRPRPFDVPRP	-0.0798

Sequence	shrunken log2 fold change
RRIRIRPPRLPRPRPRPIQPPRP	-0.044
RRIRFRPPRLPRPRPRPYCLPRP	-0.341
RRIRMRPPRLPRPRPRPASVPRP	1.67
RRIRERPPRLPRPRPRPDYLPRP	-0.612
RRIRVRPPRLPRPRPRPEWCPRP	0.323
RRIRSRPPRLPRPRPRPAKAPRP	0.000841
RRIRTRPPRLPRPRPRPVNLPRP	-0.0397
RRIRKRPPRLPRPRPRPNVLPRP	-0.112
RRIRARPPRLPRPRPRPVEMPRP	0.196
RRIRVRPPRLPRPRPRPFVVPRP	-0.107
RRIRARPPRLPRPRPRPEYCPRP	0.409
RRIRHRPPRLPRPRPRPLATPRP	-0.0931
RRIRPRPPRLPRPRPRPLSDPRP	-0.0446
RRIRTRPPRLPRPRPRPDRKPRP	0.00258
RRIRKRPPRLPRPRPRPRMMPRP	0.492
RRIRERPPRLPRPRPRPDHGPRP	-0.00973
RRIRHRPPRLPRPRPRPWYHPRP	-1.53
RRIRCRPPRLPRPRPRPPQAPRP	0.735
RRIRFRPPRLPRPRPRPHNHPRP	-0.835
RRIRTRPPRLPRPRPRPWDPPRP	0.102
RRIRRRPPRLPRPRPRPMYFPRP	-0.21
RRIRGRPPRLPRPRPRPSCTPRP	0.565
RRIRGRPPRLPRPRPRPFQTPRP	0.013
RRIRGRPPRLPRPRPRPNSYPRP	-0.0855
RRIRQRPPRLPRPRPRPGFTPRP	-0.11

Sequence	shrunken log2 fold change
RRIRGRPPRLPRPRPRPGVHPRP	0.597
RRIRNRPPRLPRPRPRPCDSPRP	0.11
RRIRDRPPRLPRPRPRPWVHPRP	-0.0818
RRIRSRPPRLPRPRPRPGPVPRP	0.384
RRIRYRPPRLPRPRPRPLLNPRP	-0.19
RRIRCRPPRLPRPRPRPTFNPRP	-0.525
RRIRMRPPRLPRPRPRPIHQPRP	-0.108
RRIRWRPPRLPRPRPRPDVTPRP	0.0084
RRIRPRPPRLPRPRPRPTRLPRP	0.769
RRIRDRPPRLPRPRPRPHGPPRP	0.0119
RRIRFRPPRLPRPRPRPKQRPRP	0.384
RRIRIRPPRLPRPRPRPTGKPRP	-0.129
RRIRQRPPRLPRPRPRPSYYPRP	-0.356
RRIRKRPPRLPRPRPRPPCQPRP	0.47
RRIRIRPPRLPRPRPRPDAVPRP	0.0396
RRIRGRPPRLPRPRPRPDPLPRP	0.072
RRIRQRPPRLPRPRPRPHQAPRP	-0.241
RRIRDRPPRLPRPRPRPTCMPRP	-0.0434
RRIRERPPRLPRPRPRPQARPRP	-0.0863
RRIRPRPPRLPRPRPRPYAIPRP	-0.219
RRIRNRPPRLPRPRPRPDVDPRP	0.0446
RRIRRRPPRLPRPRPRPNSRPRP	-0.0456
RRIRKRPPRLPRPRPRPKTSPRP	0.489
RRIRKRPPRLPRPRPRPRNWPRP	0.95
RRIRLRPPRLPRPRPRPVDNPRP	-0.491

Sequence	shrunken log2 fold change
RRIRWRPPRLPRPRPRPCIIPRP	-0.222
RRIRARPPRLPRPRPRPQSKPRP	0.0474
RRIRGRPPRLPRPRPRPDWSPRP	0.203
RRIRTRPPRLPRPRPRPHHPPRP	-0.135
RRIRKRPPRLPRPRPRPLMRPRP	1.35
RRIRQRPPRLPRPRPRPERQPRP	-0.0407
RRIRERPPRLPRPRPRPTTLPRP	-0.325
RRIRIRPPRLPRPRPRPKDWPRP	0.299
RRIRARPPRLPRPRPRPALEPRP	1.19
RRIRCRPPRLPRPRPRPCGHPRP	-0.101
RRIRCRPPRLPRPRPRPCIQPRP	0.0591
RRIRVRPPRLPRPRPRPPQHPRP	0.186
RRIRRRPPRLPRPRPRPCLNPRP	-0.4
RRIRHRPPRLPRPRPRPDIWPRP	-0.11
RRIRRRPPRLPRPRPRPDSEPRP	0.036
RRIRPRPPRLPRPRPRPTWNPRP	0.00306
RRIRRRPPRLPRPRPRPARWPRP	1.13
RRIRDRPPRLPRPRPRPQGKPRP	0.00439
RRIRSRPPRLPRPRPRPKGHPRP	-0.000921
RRIRHRPPRLPRPRPRPHLFPRP	-0.154
RRIRKRPPRLPRPRPRPVTAPRP	0.147
RRIRSRPPRLPRPRPRPLNAPRP	0.213
RRIRGRPPRLPRPRPRPQVDPRP	0.266
RRIRMRPPRLPRPRPRPMSEPRP	0.102
RRIRNRPPRLPRPRPRPKTQPRP	-0.0734

Sequence	shrunken log2 fold change
RRIRPRPPRLPRPRPRPTRSPRP	0.365
RRIRDRPPRLPRPRPRPFNKPRP	-1.45
RRIRIRPPRLPRPRPRPQASPRP	-0.0941
RRIRSRPPRLPRPRPRPAWGPRP	0.51
RRIRPRPPRLPRPRPRPILCPRP	0.179
RRIRMRPPRLPRPRPRPNMMPRP	-0.0235
RRIRYRPPRLPRPRPRPWPWPRP	0.0314
RRIRYRPPRLPRPRPRPLGRPRP	-0.191
RRIRLRPPRLPRPRPRPNQGPRP	-0.148
RRIRGRPPRLPRPRPRPPHYPRP	0.523
RRIRLRPPRLPRPRPRPNEQPRP	-0.0127
RRIRWRPPRLPRPRPRPMRRPRP	0.481
RRIRFRPPRLPRPRPRPNRPPRP	-0.0705
RRIRLRPPRLPRPRPRPWYLPRP	-0.759
RRIRVRPPRLPRPRPRPPLAPRP	0.425
RRIRNRPPRLPRPRPRPYLMPRP	-0.287
RRIRERPPRLPRPRPRPDMAPRP	-0.00146
RRIRLRPPRLPRPRPRPPTCPRP	0.192
RRIRWRPPRLPRPRPRPQHQPRP	-0.142
RRIRHRPPRLPRPRPRPENTPRP	0.0466
RRIRTRPPRLPRPRPRPAYNPRP	-0.355
RRIRTRPPRLPRPRPRPRFCPRP	0.443
RRIRFRPPRLPRPRPRPFYLPRP	-0.787
RRIRSRPPRLPRPRPRPWHKPRP	-0.195
RRIRVRPPRLPRPRPRPRACPRP	0.274

Sequence	shrunken log2 fold change
RRIRFRPPRLPRPRPRPLIDPRP	-0.227
RRIRVRPPRLPRPRPRPNYVPRP	-0.254
RRIRGRPPRLPRPRPRPDTYPRP	0.241
RRIRTRPPRLPRPRPRPVCGPRP	0.179
RRIRGRPPRLPRPRPRPNFPPRP	0.193
RRIRGRPPRLPRPRPRPVFQPRP	0.519
RRIRDRPPRLPRPRPRPHPYPRP	0.0304
RRIRNRPPRLPRPRPRPPFWPRP	0.196
RRIRGRPPRLPRPRPRPFFMPRP	0.374
RRIRGRPPRLPRPRPRPFIEPRP	0.364
RRIRERPPRLPRPRPRPGSCPRP	-0.0703
RRIRSRPPRLPRPRPRPSKHPRP	-0.461
RRIRERPPRLPRPRPRPIFRPRP	-0.00741
RRIRKRPPRLPRPRPRPPLPPRP	0.74
RRIRFRPPRLPRPRPRPMKEPRP	-0.187
RRIRMRPPRLPRPRPRPHIRPRP	-0.0162
RRIRTRPPRLPRPRPRPAMDPRP	-0.708
RRIRHRPPRLPRPRPRPTGRPRP	-0.089
RRIRFRPPRLPRPRPRPTPKPRP	0.681
RRIRNRPPRLPRPRPRPRMWPRP	0.28
RRIRARPPRLPRPRPRPWTKPRP	0.167
RRIRPRPPRLPRPRPRPQPPPRP	0.509
RRIRWRPPRLPRPRPRPHIPPRP	-0.227
RRIRCRPPRLPRPRPRPWSRPRP	-0.391
RRIRERPPRLPRPRPRPREHPRP	-0.0329

From the supplement of paper PMC9112550, “Optimization of the antimicrobial peptide Bac7 by deep mutational scanning” (BMC Biology, 2022)
